Experimental data: US20250346668A1 (GENOR BIOPHARMA, published 2025)

B1: hAb008-26 (antibody, V domains shown)
VH: QVQLVQSGAEVKKPGASVKVSCKASGYTFTDYTVNWVRQAPGQRLEWIGYINPFNSYTKYNQKFKDRATITADTSASTAYMELSSLRSEDTAVYFCANSVSTYWGQGTTVTVSS
VL: DVVMTQSPLSLPVTLGQPASISCKSSQSLLDSDGKTYLNWLQQRPGQSPRRLIQLVSKLNSGVPDRFSGSGSGTDFTLKISRVEAEDVGVFYCWQGTHFPRTFGGGTKLEIK
notes: Humanized; constant regions not specified
B2: CAb008 (antibody, V domains shown)
VH: QVQLQQSGAELARPGASVKMSCKTSGYTFTDYTVNWVKQRPGQGLEWIGYINPFNSYTKYNQKFKDKATLTADKSSSTAYMQLSSLTSEDSAVYFCANSVSTYWGQGTTLTVSS
VL: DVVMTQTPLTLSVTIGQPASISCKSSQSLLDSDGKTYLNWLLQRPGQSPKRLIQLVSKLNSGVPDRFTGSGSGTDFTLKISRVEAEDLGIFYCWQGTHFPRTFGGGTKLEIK
notes: Chimeric: mouse variable regions linked to human light and heavy constant regions; constant regions not specified
B3: CAb007 (antibody, V domains shown)
VH: QVQLQQSGPELVKPGASVKISCKASGSTFTDNYIHWVKQRPGQGLEWIGWIYPGSVNIKYNEKFKDKATLTADTSSTTAYMQLSSLSSEDSAIYYCARDISRYYFDYWGQGTTLTVSS
VL: DIVMSQSPSSLAVSAGERVTMNCKSSQSLLNSRTRKNYLAWYQQKPGQSPKLLIYWASTRESGVPDRFTGSGSGTDFTLTISSVQAEDLAVYYCKQSFILRTFGGGTKLAIK
notes: as for B2
B4: CAb001 (antibody, V domains shown)
VH: QVQLQQSGPELVKPGASVKISCKASGYSFTNYYMHWVKQRPGQGLEWIGWTYPGNNNIKYNEKFKGKATLTADTSSSTAYMQLSSLTSEDSAVYYCARDGYGYYFFDYWGQGIILTVSS
VL: DIVMSQSPSSLAVSAGEKVTMSCKSSQSLLNNRTRKNYLAWYQQKPGQSPKLLIYWASTRESGVPDRFTGSGSGTDFTLTISSVQAEDLAIYYCKQSYTLRTFGGGTKLAIK
notes: as for B2
B5: hAb001-21 (antibody, V domains shown)
VH: QVQLVQSGAEVKKPGASVKVSCKASGYSFTNYYMHWVRQAPGQRLEWIGWTYPGNNNIKYNEKFKGRVTITADTSASTAYMELSSLRSEDTAVYYCARDGYGYYFFDYWGQGTLVTVSS
VL: DIVMTQSPDSLAVSLGERATINCKSSQSLLNNRTRKNYLAWYQQKPGQPPKLLIYWASTRESGVPDRFSGSGSGTDFTLTISSLQAEDVAVYYCKQSYTLRTFGGGTKLEIK
notes: as for B1
B6: hAb001-28 (antibody, V domains shown)
VH: QVQLVQSGAEVKKPGASVKVSCKASGYSFTNYYMHWVRQAPGQRLEWIGWTYPGNNNIKYNEKFKGRATITADTSASTAYMELSSLRSEDTAVYYCARDGYGYYFFDYWGQGTLVTVSS
VL: DIVMTQSPDSLAVSLGERATMSCKSSQSLLNNRTRKNYLAWYQQKPGQPPKLLIYWASTRESGVPDRFTGSGSGTDFTLTISSLQAEDVAVYYCKQSYTLRTFGGGTKLEIK
notes: as for B1
B7: hAb001-26 (antibody, V domains shown)
VH: QVQLVQSGAEVKKPGASVKVSCKASGYSFTNYYMHWVRQAPGQRLEWIGWTYPGNNNIKYNEKFKGRATITADTSASTAYMELSSLRSEDTAVYYCARDGYGYYFFDYWGQGTLVTVSS
VL: DIVMTQSPDSLAVSLGERATINCKSSQSLLNNRTRKNYLAWYQQKPGQPPKLLIYWASTRESGVPDRFTGSGSGTDFTLTISSLQAEDVAVYYCKQSYTLRTFGGGTKLEIK
notes: as for B1
B8: hAb001-23 (antibody, V domains shown)
VH: QVQLVQSGAEVKKPGASVKVSCKASGYSFTNYYMHWVRQAPGQRLEWIGWTYPGNNNIKYNEKFKGRVTITADTSASTAYMELSSLRSEDTAVYYCARDGYGYYFFDYWGQGTLVTVSS
VL: DIVMTQSPDSLAVSLGERATMSCKSSQSLLNNRTRKNYLAWYQQKPGQPPKLLIYWASTRESGVPDRFSGSGSGTDFTLTISSLQAEDVAVYYCKQSYTLRTFGGGTKLEIK
notes: as for B1
B9: hAb001-22 (antibody, V domains shown)
VH: QVQLVQSGAEVKKPGASVKVSCKASGYSFTNYYMHWVRQAPGQRLEWIGWTYPGNNNIKYNEKFKGRVTITADTSASTAYMELSSLRSEDTAVYYCARDGYGYYFFDYWGQGTLVTVSS
VL: DIVMTQSPDSLAVSLGERATINCKSSQSLLNNRTRKNYLAWYQQKPGQPPKLLIYWASTRESGVPDRFTGSGSGTDFTLTISSLQAEDVAVYYCKQSYTLRTFGGGTKLEIK
notes: as for B1
B10: hAb001-27 (antibody, V domains shown)
VH: QVQLVQSGAEVKKPGASVKVSCKASGYSFTNYYMHWVRQAPGQRLEWIGWTYPGNNNIKYNEKFKGRATITADTSASTAYMELSSLRSEDTAVYYCARDGYGYYFFDYWGQGTLVTVSS
VL: DIVMTQSPDSLAVSLGERATMSCKSSQSLLNNRTRKNYLAWYQQKPGQPPKLLIYWASTRESGVPDRFSGSGSGTDFTLTISSLQAEDVAVYYCKQSYTLRTFGGGTKLEIK
notes: as for B1

Key:
[1] = target: T1, CD3 on Jurkat cells (human); assay: FACS on Jurkat cells, Alexa 488 secondary antibody, MFI [c]
T1 construct: native, on the surface of Jurkat cells; The sheets print only 'Jurkat'; also called human CD3; TCR/CD3 complex on the human T cell line Jurkat
Procedure: (§1) Jurkat cells were amplificatorily cultured to 3×10⁶/ml in a T-175 cell culture flask, the culture medium was removed by centrifugation, and the cells were washed twice with PBS buffer (purchased from Invitrogen). After cell counting, the cells were diluted to 2×10⁶ cells/ml with PBS buffer, added with 1% BSA blocking solution, where the percentage was a mass percentage, incubated on ice for 30 minutes, and then washed twice with PBS buffer by centrifugation. The collected cells were suspended to 2×10⁶ cells/mL with FACS buffer (PBS+1% BSA, where the percentage was a mass percentage), and added to a 96-well FACS reaction plate at 100 μl per well, and samples of the purified CD3 antibodies obtained in Example 4 to be tested were added at 100 μl per well, and incubated at 4° C. for 2 hours. The plate was washed twice with FACS buffer by centrifugation, added with 100 μl per well of fluorescent (Alexa 488) labeled secondary antibody (purchased from Jackson), and incubated at 4° C. for 1 hour. After washing 3 times by centrifugation with FACS buffer, the cells were suspended with 100 μl of FACS buffer, and detected and analyzed using BD FACS LSRFortessa (purchased from BD). The results are shown in FIG. 5, where the IgG control is human IgG1 (hIgG).

[2] = target: T2, human CD3e/g antigen (ACRO, catalog number CDG-H52W5) (human, UniProt P07766 23-126; P09693 23-116); assay: SPR (Biacore 8K), antibody captured via anti-human Fc
T2 construct: Bought reagent used as the Biacore analyte; also called hCD3e/g
Procedure: The equilibrium dissociation constant of binding of CD3 antibodies to human CD3e/g antigen (purchased from ACRO, catalog number CDG-H52W5) was determined by kinetic binding method using Biacore 8K (GE) system. Through the capture method, the carboxylated dextran surface of CM5 chip was first activated with NHS (N-hydroxysuccinimide) and EDC (1-(3-dimethylaminopropyl)-3-ethylcarbodiimide hydrochloride), and then added with an anti-human IgG (Fc) antibody, the free amino group of which could form an amide bond with the activated carboxyl group, thereby being fixed on the chip surface. The anti-human IgG (Fc) antibody could bind to the Fc end of CD3 antibodies to capture the antibodies, and then a series of concentrations of antigen were added to obtain the binding and dissociation curves of antibody and antigen, and the corresponding kinetic constants were calculated by Biacore Evaluation software, as shown in the table below.

[3] = target: T1, CD3 on Jurkat cells; assay: FACS on Jurkat cells, Alexa 488 secondary antibody, MFI [d]
Procedure: as §1

[4] = target: T1, CD3 on Jurkat cells; assay: FACS on Jurkat cells, Alexa 488 secondary antibody, MFI [b]
Procedure: as §1

[5] = target: T1, CD3 on Jurkat cells; assay: FACS on Jurkat cells, Alexa 488 secondary antibody, MFI [a]
Procedure: as §1

| Binder | EC50 (read off the curve) [1] [nM] | Kd [2] [nM] | koff [2] [s⁻¹] | kon [2] [M⁻¹ s⁻¹] | EC50 (read off the curve) [3] [nM] | EC50 (read off the curve) [4] [nM] | EC50 (read off the curve) [5] [nM] |
| --- | --- | --- | --- | --- | --- | --- | --- |
| B1 | ~2 | 18.1 | 0.00482 | 266000 | – | – | – |
| B2 | – | 21.2 | 0.00372 | 176000 | ~3 | – | – |
| B3 | – | 12.1 | 0.00532 | 438000 | – | ~0.1 | – |
| B4 | – | 23.1 | 0.00616 | 267000 | – | – | ~0.3 |
| B5 | – | 16.8 | 0.00669 | 398000 | – | – | ~0.3 |
| B6 | – | 20.4 | 0.00745 | 365000 | – | – | ~0.3 |
| B7 | – | 17.4 | 0.00673 | 386000 | – | – | ~0.3 |
| B8 | – | 17.4 | 0.00696 | 401000 | – | – | ~0.3 |
| B9 | – | 20.4 | 0.00848 | 416000 | – | – | ~0.3 |
| B10 | – | 21 | 0.00823 | 391000 | – | – | ~0.3 |
